Results on 3 compounds are retold here after paper PMC5051949, “Mechanism of Rifampicin Inactivation in Nocardia farcinica” (PLoS ONE, 2016).

For data set [1], the target named is T1, RifMO (rifampicin monooxygenase) (Nocardia farcinica, UniProt Q5YTV5).
T1 construct: gene rox; full-length, codon optimized, pET15b N-terminal 6xHis tag cleaved with thrombin, expressed in E. coli
The experiment in a line: steady-state oxygen consumption (oxygraph). The format is biochemical. The settings on record: substrate inhibition by NADPH; 30 μM Rif, 100 mM sodium phosphate pH 7.5, 25°C. The text has this:
(§1) steady-state oxygen consumption (oxygraph) on RifMO (rifampicin monooxygenase)

The target of data set [2] is T1, RifMO (rifampicin monooxygenase). The experiment in a line: flavin absorbance change at […] nm (spectral titration). Format: binding.
Data set [3] deals with NC(=O)C1=CN([C@@H]2O[C@H](COP(=O)(O)OP(=O)(O)OC[C@H]3O[C@@H](n4cnc5c(N)ncnc54)[C@H](OP(=O)(O)O)[C@@H]3O)[C@@H](O)[C@H]2O)C=CC1. The experiment in a line: steady-state oxygen consumption (oxygraph). Format: biochemical, Nocardia farcinica. The settings on record: 30 μM Rif, 100 mM sodium phosphate pH 7.5, 25°C, varied: cofactor.
Source text: as §1

Data set [4] deals with NC(=O)C1=CN([C@@H]2O[C@H](COP(=O)(O)OP(=O)(O)OC[C@H]3O[C@@H](n4cnc5c(N)ncnc54)[C@H](O)[C@@H]3O)[C@@H](O)[C@H]2O)C=CC1. The experiment in a line: steady-state oxygen consumption (oxygraph). Format: biochemical, Nocardia farcinica. Particulars: 30 μM Rif, 100 mM sodium phosphate pH 7.5, 25°C, varied: cofactor.
Source text: as §1

For data set [5], the system named is CO[C@H]1/C=C/O[C@@]2(C)Oc3c(C)c(O)c4c(O)c(c(/C=N/N5CCN(C)CC5)c(O)c4c3C2=O)NC(=O)/C(C)=C\C=C\[C@H](C)[C@H](O)[C@@H](C)[C@@H](O)[C@@H](C)[C@H](OC(C)=O)[C@@H]1C. The experiment in a line: steady-state oxygen consumption (oxygraph). Particulars: 1 mM NADPH, 100 mM sodium phosphate pH 7.5, 25°C. Format: biochemical, Nocardia farcinica.
Source text: as §1

T1 sequence (Q5YTV5 whole entry): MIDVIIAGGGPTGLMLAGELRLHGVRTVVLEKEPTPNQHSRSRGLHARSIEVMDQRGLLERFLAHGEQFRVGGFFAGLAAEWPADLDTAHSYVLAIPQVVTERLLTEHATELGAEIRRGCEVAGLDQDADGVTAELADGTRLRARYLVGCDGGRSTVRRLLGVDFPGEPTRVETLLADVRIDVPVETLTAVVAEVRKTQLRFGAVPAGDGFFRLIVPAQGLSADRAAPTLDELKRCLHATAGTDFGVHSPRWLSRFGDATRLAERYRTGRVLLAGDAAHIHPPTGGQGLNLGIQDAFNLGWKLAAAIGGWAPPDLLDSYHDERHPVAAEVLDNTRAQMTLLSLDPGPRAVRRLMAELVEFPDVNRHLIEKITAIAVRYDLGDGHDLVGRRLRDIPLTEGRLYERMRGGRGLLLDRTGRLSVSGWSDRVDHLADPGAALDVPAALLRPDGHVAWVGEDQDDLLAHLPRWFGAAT

With `NC(=O)C1=CN([C@@H]2O[C@H](COP(=O)(O)OP(=O)(O)OC[C@H]3O[C@@H](n4cnc5c(N)ncnc54)[C@H](OP(=O)(O)O)[C@@H]3O)[C@@H](O)[C@H]2O)C=CC1` [NADPH], the “KI” value in data set [1] was determined as 33000 ± 4000 µM.
For the compound `CO[C@H]1/C=C/O[C@@]2(C)Oc3c(C)c(O)c4c(O)c(c(/C=N/N5CCN(C)CC5)c(O)c4c3C2=O)NC(=O)/C(C)=C\C=C\[C@H](C)[C@H](O)[C@@H](C)[C@@H](O)[C@@H](C)[C@H](OC(C)=O)[C@@H]1C` [Rif, rifampicin], binding in data set [2] was characterised by a dissociation constant (Kd) of 9.5 ± 2.5 µM.
In the case of “RifMO (rifampicin monooxygenase) (Nocardia farcinica IFM 10152)”, in data set [3], the Michaelis constant (Km) (in general, the substrate concentration at which the rate is half of its maximum) was found to be 90 ± 10 µM; the kcat (in general, the maximal rate divided by the concentration of active sites) came to 4 ± 0.1 s⁻¹; the kcat/Km (usually the turnover number divided by the Michaelis constant) turned out to be 43100 ± 3700 M⁻¹ s⁻¹. Further, in data set [4], the Km is 266 ± 25 µM, the catalytic constant (kcat) was found to be 3.3 ± 0.06 s⁻¹ and the specificity constant (kcat/Km) is 12600 ± 1000 M⁻¹ s⁻¹. For the same compound, in data set [5], the Km came to 5.8 ± 0.88 µM, the turnover number (kcat) amounted to 4 ± 0.16 s⁻¹ and the kcat/Km stood at 700000 ± 81300 M⁻¹ s⁻¹.
